Test results as given in paper PMC5859130.

Key:
[1] = molecular target: Ixonnexin (Ixodes scapularis) (UniProt Q4PMS3); assay: SPR; Ixonnexin amine-coupled to a carboxymethylated dextran (CM5) chip, 726.2 RU; analytes injected 120 s at 30 µL/min, 25 °C, dissociation 600 s; global fit with the two-state (conformational change) model, Langmuir 1:1 for plasmin

Glu-plasminogen (natural protein)
Km of plasmin generation (S2251) started with t-PA, with immobilized Ixonnexin (0.5 μg/ml) and increasing Glu-plasminogen (Single-chain t-PA): 0.208 µM | Kd [1]: 19.5 nM | ka1 (two-state, first step) [1]: 123000 M⁻¹ s⁻¹ | ka2 (two-state, conformational change) [1]: 0.022 s⁻¹ | kd1 (two-state, first step) [1]: 0.057 s⁻¹ | kd2 (two-state, conformational change) [1]: 0.00099 s⁻¹

Single-chain t-PA (enzyme)
Kd [1]: 4.67 nM | ka1 (two-state, first step) [1]: 413000 M⁻¹ s⁻¹ | ka2 (two-state, conformational change) [1]: 0.0097 s⁻¹ | kd1 (two-state, first step) [1]: 0.031 s⁻¹ | kd2 (two-state, conformational change) [1]: 0.0015 s⁻¹

Two-chain t-PA (enzyme)
Kd [1]: 10.3 nM | ka1 (two-state, first step) [1]: 1.2e+06 M⁻¹ s⁻¹ | ka2 (two-state, conformational change) [1]: 0.011 s⁻¹ | kd1 (two-state, first step) [1]: 0.43 s⁻¹ | kd2 (two-state, conformational change) [1]: 0.0018 s⁻¹

Plasmin (enzyme)
Kd [1]: 197 nM | koff [1]: 0.29 s⁻¹ | kon [1]: 1.48e+06 M⁻¹ s⁻¹
